According to article doi:10.1101/2020.06.01.127704 (bioRxiv, 2020):

Biological target: the molecule itself
Assay: cryo-EM structure

B1: full-length human excitatory amino acid transporter 3 with two potential glycosylation sites mutated (N178T and N195T) (natural protein, UniProt P43005 1-524, looked up)
chain: MGKPARKGCEWKRFLKNNWVLLSTVAAVVLGITTGVLVREHSNLSTLEKFYFAFPGEILMRMLKLIILPLIISSMITGVAALDSNVSGKIGLRAVVYYFCTTLIAVILGIVLVVSIKPGVTQKVGEIARTGSTPEVSTVDAMLDLIRNMFPENLVQACFQQYKTKREEVKPPSDPEMTMTEESFTAVMTTAISKTKTKEYKIVGMYSDGINVLGLIVFCLVFGLVIGKMGEKGQILVDFFNALSDATMKIVQIIMCYMPLGILFLIAGKIIEVEDWEIFRKLGLYMATVLTGLAIHSIVILPLIYFIVVRKNPFRFAMGMAQALLTALMISSSSATLPVTFRCAEENNQVDKRITRFVLPVGATINMDGTALYEAVAAVFIAQLNDLDLGIGQIITISITATSASIGAAGVPQAGLVTMVIVLSAVGLPAEDVTLIIAVDWLLDRFRTMVNVLGDAFGTGIVEKLSKKELEQMDVSSEVNIVNPFALESTILDNEDSDTKKSYVNGGFAVDKSDTISFTQTSQF
stoichiometry N: 3
